Consider 3 molecules from patent publication US20190075806A1, “PROTEINASE B AND LACTASE SOLUTION USING ITS PROPERTIES AND METHOD FOR PRODUCING THE SAME” (GODO SHUSEI CO., LTD., priority 2016, published 2019).

For data set [1] the following is noted: pH 7.0, cited from earlier work.
The next data set has as its system Azocoll. Put plainly: Azocoll-decomposing activity. The format is biochemical. The conditions noted are these: for SUBSTRATE SPECIFICITY: substrate Azocoll.
Data set [2] can be described thus: Substrate specificity, Bz-Tyr-pNa. The format is biochemical.
The next data set concerns Azocasein. Put plainly: Substrate specificity, Azocasein. The format is biochemical. From the text:
As a method for evaluating an influence on the fragmentation activity of PrB, the “lactase-fragmenting activity” can be also used as its index. This “lactase-fragmenting activity” indicates the enzyme activity of fragmenting the lactase protein, and an actual index can be defined as follows. When the band strength around 120 kDa of a sample to which PrB is not added is regarded as 100%, the band area relative value around 120 kDa of samples obtained by adding 1 to 4 mACU of PrB is found as a relative value (1 ACU means the amount of enzyme which raises the absorbance at 428 nm by 1 at 30° C. for an hour using azocasein as a substrate). Next, the amount of enzyme added when the lactase band after reaction at 30° C. for an hour decreases by 20% compared to when PrB is not added is regarded as 1 LDU (Lactase Degradation Unit) of lactase-fragmenting activity.

Data set [3] relates to lactase. The data set is described as follows: Lactase-fragmenting activity (LDU). The settings on record: for SUBSTRATE SPECIFICITY: substrate Lactase. The format is biochemical, Kluyveromyces. From the text:
In addition, the “lactase-fragmenting action” in the claims and description can be an action by which the neutral lactase around 120 kDa in SDS-PAGE is fragmented, and preferably the fragments of the fragmented lactase show the neutral lactase activity. As a method for evaluating an influence on the fragmentation activity of PrB, the “lactase-fragmenting activity” can be also used as its index. This “lactase-fragmenting activity” indicates the enzyme activity of fragmenting the lactase protein, and an actual index can be defined as follows. When the band strength around 120 kDa of a sample to which PrB is not added is regarded as 100%, the band area relative value around 120 kDa of samples obtained by adding 1 to 4 mACU of PrB is found as a relative value (1 ACU means the amount of enzyme which raises the absorbance at 428 nm by 1 at 30° C. for an hour using azocasein as a substrate). Next, the amount of enzyme added when the lactase band after reaction at 30° C. for an hour decreases by 20% compared to when PrB is not added is regarded as 1 LDU (Lactase Degradation Unit) of lactase-fragmenting activity.

Data set [4] relates to lactase. The data set is described as follows: Fragmentation of lactase confirmed by SDS-PAGE. It counts as biochemical, Kluyveromyces. How it is done: First, the state of fragmentation of lactase in a lactase solution can be confirmed by SDS-PAGE using 10% polyacrylamide gel. For example, a lactase solution is diluted with purified water as needed, and mixed with Sample Buffer for SDS-PAGE at 1:1, and electrophoresis samples are prepared by heat treatment at 100° C. for 3 minutes. Next, the standard and electrophoresis samples are applied to 10% acrylamide gel, and subjected to electrophoresis. The molecular weight of lactase can be also roughly estimated by comparison with the standard. As the standard, CLEARLY Stained Protein Ladder (Takara #3454A) and the like are used. The gel after electrophoresis is subjected to protein staining using a CBB staining solution (BIO-RAD #161-0786).
The gel after staining was scanned as a grayscale image with a scanner GT-X820 manufactured by Seiko Epson Corporation. Furthermore, the concentration of each band (protein amount) can be also measured by Image J software (NIH, Bethesda, Md.). […]
As prior consideration, the following test was carried out about a relationship between the fragmentation and heat stability of lactase. […] As the conditions of the heat stability test, using an enzyme solution (lactase solution) diluted to 0.25 NLU/g, the activity after treatment at 50° C. for 10 minutes was calculated as the remaining activity (%) to that of an untreated sample. […]

Data set [5] in a line: Substrate specificity, Bz-Arg-pNa. It counts as biochemical.
Another data set has as its system FITC-casein. Put plainly: FITC-casein-decomposing activity. The format is biochemical. The conditions noted are these: for SUBSTRATE SPECIFICITY: substrate FITC-casein.
Another data set relates to Casein. The data set is described as follows: Substrate specificity, Casein. It counts as biochemical.
For a further data set, the system named is BSA. Put plainly: Substrate specificity, BSA. The format is biochemical.
A short description of data set [6]: Substrate specificity, Ac-Phe-pNa. It counts as biochemical.
The mark [7] stands for this setting: FITC-casein-decomposing activity.
The mark [8] stands for this setting: FITC-casein-decomposing activity, listed as K. lactis.

Entries after “also recorded” stand apart in the source; their conditions may differ. Where two headings read alike, the source gives them in different places.

B1: lactase described in Patent Literature 1: lactase from cultures of a strain of Kluyveromyces lactis (JP 60-18394 B) (protein, UniProt P00723 1-1025, looked up)
Beta-galactosidase: MSCLIPENLRNPKKVHENRLPTRAYYYDQDIFESLNGPWAFALFDAPLDAPDAKNLDWETAKKWSTISVPSHWELQEDWKYGKPIYTNVQYPIPIDIPNPPTVNPTGVYARTFELDSKSIESFEHRLRFEGVDNCYELYVNGQYVGFNKGSRNGAEFDIQKYVSEGENLVVVKVFKWSDSTYIEDQDQWWLSGIYRDVSLLKLPKKAHIEDVRVTTTFVDSQYQDAELSVKVDVQGSSYDHINFTLYEPEDGSKVYDASSLLNEENGNTTFSTKEFISFSTKKNEETAFKINVKAPEHWTAENPTLYKYQLDLIGSDGSVIQSIKHHVGFRQVELKDGNITVNGKDILFRGVNRHDHHPRFGRAVPLDFVVRDLILMKKFNINAVRNSHYPNHPKVYDLFDKLGFWVIDEADLETHGVQEPFNRHTNLEAEYPDTKNKLYDVNAHYLSDNPEYEVAYLDRASQLVLRDVNHPSIIIWSLGNEACYGRNHKAMYKLIKQLDPTRLVHYEGDLNALSADIFSFMYPTFEIMERWRKNHTDENGKFEKPLILCEYGHAMGNGPGSLKEYQELFYKEKFYQGGFIWEWANHGIEFEDVSTADGKLHKAYAYGGDFKEEVHDGVFIMDGLCNSEHNPTPGLVEYKKVIEPVHIKIAHGSVTITNKHDFITTDHLLFIDKDTGKTIDVPSLKPEESVTIPSDTTYVVAVLKDDAGVLKAGHEIAWGQAELPLKVPDFVTETAEKAAKINDGKRYVSVESSGLHFILDKLLGKIESLKVKGKEISSKFEGSSITFWRPPTNNDEPRDFKNWKKYNIDLMKQNIHGVSVEKGSNGSLAVVTVNSRISPVVFYYGFETVQKYTIFANKINLNTSMKLTGEYQPPDFPRVGYEFWLGDSYESFEWLGRGPGESYPDKKESQRFGLYDSKDVEEFVYDYPQENGNHTDTHFLNIKFEGAGKLSIFQKEKPFNFKISDEYGVDEAAHACDVKRYGRHYLRLDHAIHGVGSEACGPAVLDQYRLKAQDFNFEFDLAFE
For the molecule B1, the results for the deactivated in data set [1] (50° C. for 10 minutes) and in data set [1] (55° C. for 10 minutes) were 45% and 100%, respectively.

B2: S. cerevisiae: PrB derived from S. cerevisiae, comparison enzyme (protein, UniProt P09232 281-574, looked up)
Cerevisin: EFDTQNSAPWGLARISHRERLNLGSFNKYLYDDDAGRGVTSYVIDTGVNINHKDFEKRAIWGKTIPLNDEDLDGNGHGTHCAGTIASKHYGVAKNANVVAVKVLRSNGSGTMSDVVKGVEYAAKAHQKEAQEKKKGFKGSTANMSLGGGKSPALDLAVNAAVEVGIHFAVAAGNENQDACNTSPASADKAITVGASTLSDDRAYFSNWGKCVDVFAPGLNILSTYIGSDDATATLSGTSMASPHVAGLLTYFLSLQPGSDSEFFELGQDSLTPQQLKKKLIHYSTKDILFDIPE
With B2, in the data set on Azocoll (Azocoll-decomposing activity), the “HEAT STABILITY” value was found to be 25 °C; the INHIBITOR entry is on record as “PCMB, PMSF,; also recorded: HgCl2”; the “OPTIMUM REACTION pH” value is listed as “pH 7.0”. Also, the “SUBSTRATE SPECIFICITY” value in the data set with Azocoll is given as 9.1. Moreover, the “SUBSTRATE SPECIFICITY” value in [2] turned out to be 0.2. The “SUBSTRATE SPECIFICITY” value in the data set on Azocasein was 1.

B3: PrB: proteinase B derived from Kluyveromyces lactis, neutral protease with lactase-fragmenting activity, SEQ ID NO:1 (protein, listed as Kluyveromyces lactis)
chain: SFNTQNSAPWGLARISHREKLNLGSFNKYLYDDDAGKGVTAYVVDTGVNVNHKDFDGRAVWGKTIPKDDPDVDGNGHGTHCAGTIGSVHYGVAKNADIVAVKVLRSNGSGTMSDVVKGVEYVAEAHKKAVEEQKKGFKGSTANMSLGGGKSPALDLAVNAAVKAGVHFAVAAGNENQDACNTSPAAAENAITVGASTLSDERAYFSNWGKCVDIFGPGLNILSTYIGSDTATATLSGTSMATPHVVGLLTYFLSLQPDADSEYFHAAGGITPSQLKKKLIDFSTKNVLSDLPEDTVNY
For B3, the “SUBSTRATE SPECIFICITY” value is given as 1.9 with Azocoll; “high substrate specificity” in the data set with lactase [3]; 1159 with lactase [3] (listed as K. lactis); 0 in data set [5]; “high substrate specificity” in the data set with FITC-casein; 78 in the data set on FITC-casein (listed as K. lactis). In addition, the “SUBSTRATE SPECIFICITY” value in the data set on Casein is listed as 0; in data set [2], 0; with BSA, 0; in data set [6], 0; in the data set with Azocasein, 1. The INHIBITOR result in the data set on lactase [3] (lactase-fragmenting activity) was “AEBSF”; in the data set with FITC-casein (setting [7]) it was “Cu^2+, Fe^2+”. Besides, the “OPTIMUM REACTION TEMPERATURE” value was 40 °C in the data set with lactase [3] (lactase-fragmenting activity), “about 40 °C” in the data set with FITC-casein (setting [7]) and 40 °C in the data set with FITC-casein (setting [8]). For the same molecule, the “OPTIMUM REACTION pH” value in the data set with lactase [3] (lactase-fragmenting activity) is given as “pH 7.0”; in the data set on FITC-casein (setting [7]), “about 8.0 pH”; with FITC-casein (setting [8]), “pH 8.0”. The “state of fragmentation of lactase (SDS-PAGE)” value in the data set on lactase [4] was “fragmentation of lactase proceeded”. The “amount of PrB at which fragmentation was not caused” value in the data set on lactase [4] (with respect to 1 NLU of lactase activity, added to F-1, 30° C. for 20 hours) is given as 0.26 ng. Further, the ACTIVATOR result in the data set on FITC-casein (setting [7]) is on record as “Ca^2+”. In the data set on FITC-casein (setting [7]), the “HEAT STABILITY” value was found to be 40 °C. Also, the “pH STABILITY” value in the data set with FITC-casein (setting [7]) is 5.0 to 8.0 pH; in the data set on FITC-casein (setting [8]) it was “pH 5.0~8.0”.
